This data set can be described thus: yeast display, Sf9 membrane polyspecificity reagent, FACS + sequencing; frameworks hold sequencing errors. The procedure, abridged:
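Using colony PCR, genes from sorted yeast display clones were amplified, then sequenced on MiSeq at 2 × 250 and filtered by CDR length. The clones had been stained with 10% biotinylated, detergent-solubilized Sf9 membrane reagent for 1 hour at 4 °C and sorted by FACS into low and high (top ~1%) gates on anti-HA and streptavidin fluorescence. Polyreactivity labels come from the gate of origin.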
“QVQLVESGGGLVQAGGSLRLSCAASGLIFSNNAMGWYRQAPGKERELVAAISKSGGGTSYADSVKGRFTISRDNAKNTVYLQMNSLKPEDTAVYYCAARFRQFRVDYWGQGTQVTVSS”: the “polyreactivity (PSR sort gate)” value was “high polyreactivity”.
Next, “QVQLVESGAGLVQAGGSLRLSCADSGSTFQPYAMGWYRQAPGKEREFVATISGSAGSKYYADSVKGRFKISRDNAKNTVYLQKNSLKPEDTAVYYCNADSGWFGYDYWGQGTQVTVSS”: “low polyreactivity”.
Next, “QVQLVESGGGLVQAGGSLRLSCAASGFTIHGNAMGWYRPAPGKERELVAGISSSGASTYYADSVKGRFTISRDNAKNTVFLQMNSLKPEDTAVYYCAVRYYGRYLRYNYWGQGTQVTVSS”: “high polyreactivity”; “QVQIVESGGGLVQAGGSLRLSCAASGRIFIRYSMGWYRHAPGIERELVAAISSGGRTYYADSVKGRFTISRDNATNTVYLQMNSLNPEDTAVYYCARASSIARYDNWGQGTQVTVSS”: “high polyreactivity”.
Next, “QVHLVESGGGLVQAGGSLRLSCAATGRTFAGYAMGWYRQAPGKERQLVAAITNGGSTKYADSVKGRFTISRDNAKNSVYLQMNSLKPEDTAVYYCKARKRFYSGNTLMYYWGQGTQVTVSS”: “high polyreactivity”.
Regarding “QVQLVESGGGLVQAGGSLRLSCAASGSTFTDNTMGWYRQAPGKERELVAAISGVGSTYYADSVKGRFTISRDNAKNTVYLQLNSLKPEVSAVYYCAKPYYDGRTHFVSWGQGTQVTVSS”, the “polyreactivity (PSR sort gate)” value is given as “low polyreactivity”.
The result for “QVQLVESGGGLVQAGGSLRLSCAASGSTFDDNAMGWYRQAPGKERELVAVISSGGSTNYADSVKGRFTISRDNAKNTVYLQMNSLKPEDTAVYYCAAAKLTRRYRYGYWGQGTQVTVSS” reads “high polyreactivity”.
Next, “QDQLVESGGGLVQAGGRLRLTCAASGAIFSNYAMGWYRQAPGKERELLAAITNGVSTNYAVSVKGRLTISRDNAKNTVFLQMNSLKPEDTAVYYCAAVGYRATYRVGGYLRYYYWGQGTQVTVSS”: “high polyreactivity”; “QVHLVESGGGLVQAGGRLRLSCAASGFIFWSNAMRWYRQAPGKERELVAAITWNGGDTYYADSVKGRFTISRDNAKNTVYLQMNSLKPEDTAVFYCAAVPSRRARYDYWGQGTQVTVSS”: “low polyreactivity”.
Turning to “QVQLVESGGGLVQAGGSLRLSCASSGSTFYGNAMGWYRQAPGKERELVATISSGGSTDYADSVKGRFTISRDNAKNTVYLQMNSLKPEDTAVYYCATDNYLGYYYKDGVLDDYWGQGTQVTVSS”, the “polyreactivity (PSR sort gate)” value was “low polyreactivity”.
As to “QVQLQESGGGLVQAGGSQRLSCAASGYIFYFQYMGWYRQAPGKEREFVAAISDGANTNYADSVKGRFTISRDNAKNTEYLQMNSLKPEDTAVYYCAVYADEKYYYIYWGQGTQVTVSS”, the “polyreactivity (PSR sort gate)” value is on record as “low polyreactivity”.
The result for “QVQLVESGGGLVQAGGSLRLSCAASGLTFDDYAMGWYRPAPWKEREFVATITLRGGSTYYADSVKGRFTISRDNAKNTVYLQLNSLKPEDTAVYYCNTDLGYSLEWDYDYWGQGTQVTVSS” reads “low polyreactivity”; that for “QVHLVESGGGLVQAGGSLRLSCAASVRTFYRNAMGWYRQAPGKERELVAAITRSGSTNYADSVKGRFTISRDNAKNTVYLQMNSLKPEDTAVYYCAAKFFRNTYSYGMDYWGQGTQVTVSS”, “high polyreactivity”.
As to “QVQLVESGGGLVQAGGSLRLSCAASGFIFRFNAMGWYRQAPGKERELVAVIRWSSGSTYYADSVKGRFTISRDNAKNTVYLQMNSLKPEDTAVYYCAAYVVPAYYYWGQGTQVTVSS”, the “polyreactivity (PSR sort gate)” value is “low polyreactivity”.
The result for “QVQLVESGGGLVQAGGSLRLSCAASVIIYLDNAMVWYRQAPRKEMEMVADITSSGGSTYYADSVKGRFTISRDNAKNTVSLQMNSLKPEDTAVYYCAATRPSYNDAESDYWGQGTQVTVSS” reads “low polyreactivity”.
Regarding “QVQLVESGGGLVQAGGSLRLSCSASGSTFYPYAMGWYRQAPGKERELVAAISSGGSTSYADSVKGRFTISRDNAKNTVYLQMNSLKPEDTAVYYCNASSPGAVPVYDYDYWGQGTQVTVSS”, the “polyreactivity (PSR sort gate)” value is “low polyreactivity”.
Next, “QVQLVESGGGLVQAGGSLRLSCAASGSALYAMGWYRQAPGKEMELVADISRRGGSTFYADSVKGRFTISRDKAKNTVYLQMNSLKPEDTAVYYCAAEFITYHGDDHYYWGQGTQVTVSS”: “low polyreactivity”.
The result for “QVQLVESGGGLVQAGGSLRLSCAASGFTFRRYAMGRYRQAPGKERELVAAISRSTGSTYYADSVKGRFSLSRDNAKNSVYLQMNSLKPEDTAVFYCNVAGSARVNTLVLSYEYWGQGSQVTVSS” reads “high polyreactivity”.
Regarding “QGQLVESGGGLVQAGGSLRLSCAACGSIFTYYTMGWYRQAPGKERELVAAIRWSAGRTYYADSVKGRFTISRDNAKNTVYLQMNSMKPEDTAVYYCAAAERLRHGLKFDYWGQGTQVTLSS”, the “polyreactivity (PSR sort gate)” value was “high polyreactivity”.
For the sequence “QVQLVESGGGLVQAGGSLRLSCAASGFTFWAYAMGWYRPAPGKERELVARISGSGGRTYYADSVKGRFTISRDNAKNTVYLQMNSLKREDTAVYYCNAPYFNWYGYWGQGTQVTVSS”, the “polyreactivity (PSR sort gate)” value is listed as “high polyreactivity”.
As to “QVQLVETGGGLVQAGGSLRLSCAASGYIFGYVMGWYRQAPGKERELVAAITYSSGNTYYADSVKGRFTISRDNAKNTVYLQMNSLKPEDTAVYYCAKQAYYKGRLAYGYWGQGTQVTVSS”, the “polyreactivity (PSR sort gate)” value was “high polyreactivity”.
The result for “QVQLVESGGGLVQAGGSLRLSCAASGGTFQPNAMGWYRQAPGKERELVAAISWSDGSTYYADSVKGRFTISRDNAKNTVYLQMNSLKPEDTAVYYCAADFTYYDSPYRDYNYESWGQGTQVTVSS” reads “low polyreactivity”; that for “QVQLVESGGGLVQAGGSLRLSCAASGFIFLAYAMGWYRQAPGKERELVAAISRSGGRTYYADSVKGRFTISRDNAKNTVYLQMNSLKPEDTAVYYCAPLANGTNGFYYWGQGTQVTVSS”, “high polyreactivity”; that for “QVQLVESGRGLVQAGGSLRLSCAASGRTFYSNAMGWYRQAPGKERELVAGINWSGVSTYYADSVKGRFTISRDNAKNTVYLQMNSLKPEDTAVYYCAADTYAGYNGNYWGQGTQVTVSS”, “high polyreactivity”.
As to “QDQLVESGGGLVQAGGSLRLSCAASGIIFDYYAMGWYRQAPGKERELVASISWSGGGTYYADSVKGRFTISRDNAKNTVYLQMNSLKAEDTAVYYCAADGSTVNAPRWSDPYDYWGQGTQVTVSS”, the “polyreactivity (PSR sort gate)” value was “low polyreactivity”.
Take “QVQLVESGGGLVQAGGSLRLSCAASGFIFRDNAMGWYRQAPGKERELVAAISKSGGRTYYADSVKGRFTISRDNAKNTVYLQMNCLKPEDTAVYYCAADAYHFGRMDYWGQGTQVTVSS”: the “polyreactivity (PSR sort gate)” value is recorded as “high polyreactivity”.
For the sequence “QDQLVESGGGLVQAGGSLRLSCAASGSIFPRYDMGWYRQAPGKERELVAAITGSGSSTYYADSVKGRFSISRDNAMNTVYLQMNSLKPEDTAGYYCAARKSRPPFPPPFDYYWRQGTQVTVSS”, the “polyreactivity (PSR sort gate)” value was “low polyreactivity”.
The result for “QVQLVESGGGLVQAGGSLRLSCASSGFTFWYTMGWYRQAPGKEREFVAAITSGGGRTYYADSVKGRFTISRDNAKNTVYLQMNSLKPEETAVYYSAADSYYSWYDYWVQGTQVTVSS” reads “high polyreactivity”.
As to “QVQLVESGGGLVQAGGSLRLSCAASGFTFWRNALGWYRQAPGKERELVAAISWRGGSTYYADSVKGRFTISRDNAKNTVSLQINSRKPEDTAGYYCNVVYFRYYSGEYDYGGQGTQVTVSS”, the “polyreactivity (PSR sort gate)” value is “high polyreactivity”.
Next, “QVQLVESGGGLVQAGGSLRLSCAASGLTFYTNAMGSYRQAPGKERELLAAITSSGGRTYYADSVKGRFTISRDNAKYTVYLQMNSLKPEDTAVYYCAADARRPRIPEMYYWGLGTQVTVSS”: “high polyreactivity”; “QVQLVESGGGLVQAGGSLRLSCAASGSTFGPYAMGWYRPAPGKERELVADITSSDGSTYYADSVKGRFTISRDNAKNSVYFHLNSLKREDTAVYYCNADYRYIWTYWGWTIYDYWGQGTQVTVSS”: “high polyreactivity”; “QVQLVESGGGLVQAGGSLRLSCAASGLTFNVNAMGWYRQAPGKERELVARINTSGGSTSYADSVKGRFTISRDNAKNTVYLQMNSLKPEDTAVYYCAADRARYYSEYDYWGQGTQVTVSS”: “low polyreactivity”.
Next, “QVQLVESGGGLVQAGGSLRLSCAASGNTFIYYAMGWYRQAPGKERELVAAISRSGGSTYYADSVKGRFTISRDNAKNTVYLQMNSLKPEDTAVYYCAAEATKWIGVVTMDYWGQGTQVTVSS”: “high polyreactivity”; “QVQLVESGGGLVQAGGSLRLSCAASGRIFRPYAMGWYRLAPGKERELVAAISWSGDDTYYADSVKGRFTISRDNAKNTVYLQMNSLKPEDTAVYYCAAEVYAAAYDYWGQGTQVTVSS”: “low polyreactivity”; “QVQLVESGGGLVQAGGSLRLSCAASGFTLHVYAMGWYRQAPGKERELVAAISTGGNTNFADSVKGRFTISRDNAKNTVYLQMNSLKPEDTAVYYCNTLGRYSSYYWGLGTQVTVSS”: “high polyreactivity”.
Next, “QVQLVESGGGLVQAGGSLRLSCAASGRILGYYAMGGSRQAPGKERELVAAISSGDSTNYADSVKGRFTISRDNAKNTVYLQMNSLKPEDTAVYYCAAKGWIWNPYNYWGQGTQGTVSS”: “low polyreactivity”; “QVQLVESGGGLVQAGGSLRLSCAASGRIFWINAMGWYRQAPGKERELVAAITTDGGTTYYADSVKGRFTISRDNAKNTVYLQMNSLKPEDTAVYYCAADAAGQYWWQTYDYWGQGTQVTVSS”: “high polyreactivity”; “QVQLVETGGGLVQAGGSHRLSCAASGSIFSSYVMGWYRQAPGKERELVDAISSGGRTYYADSVKGRFTISRDNAKNTVYLQMNSLKPDETAVYYCAARTRRYPRPGLSPGNYWGQGTQVTVSS”: “high polyreactivity”.
In the case of “QVQLVESGGGLVQAGGSLRLSCAASGLTFRVYAMGWYRQAPGKERELVASISRTGSTTYADSVKGRFTISRDNAKNTVYLQMNSLKPEDTAVYYCNARYYVLLWDSLAREYWGQGTQVTVSS”, the “polyreactivity (PSR sort gate)” value is recorded as “high polyreactivity”.
The result for “QVQLVESGGGLVQAGGSLRLSCAASGSTFIYYAMGWYRQAPGKEREFVAAISYRGGSTYYADSVKGRFTISRDNAKNTVYLQMNSLKPEDTAVYYCAASYRKWNDYWGQGTQVNVSS” reads “high polyreactivity”; that for “QVQLVESGGGLVQAGGSLRLSCAASGFTFLDNAMGWYRPAPGKERELVAAISGIGGSTSYADSVKGRFTISRDNAKNTVYLQMNSLKPEDTAVYYCATRWQTVGRDTIFAYDYWGQGTQVTVSS”, “low polyreactivity”.

For the origin of these results see the nanobody polyreactivity screen of Harvey et al. (2022).
